30 substances from FireProtDB can be followed below.

Several values for one entry are separate records, joined by “and”; a condition that tells them apart may be missing. Identical values can stand only once.

The mark [1] stands for this setting: Bos taurus, pH 4.4, Thermal, DSC, Sodium acetate 25 mM, NaCl 100 mM, reversible: yes.
Where [2] appears, read: Bos taurus, pH 4.8, Thermal, DSC, Sodium acetate 25 mM, NaCl 100 mM, reversible: yes.
Setting [3] is: Bos taurus, pH 5.3, Thermal, DSC, Sodium acetate 25 mM, NaCl 100 mM, reversible: yes.
The mark [4] stands for this setting: Bos taurus, pH 7.55, Thermal, DSC, Tris 0.09 M, reversible: yes.
The mark [5] stands for this setting: Bos taurus, pH 8, Thermal, DSC, Sodium acetate 25 mM, NaCl 100 mM, reversible: yes.
The mark [6] stands for this setting: Homo sapiens, Thermal, DSC, 1 X - PBS, Mg2+ 0.5 mM, structure 1AJE.
Setting [7] is: Thermotoga maritima (strain ATCC 43589 / DSM 3109 / JCM 10099 / NBRC 100826 / MSB8), pH 6.5, 25 °C, GdnHCl, Fluorescence, sodium phosphate 50 mM, NaCl 20 mM, reversible: yes.
Setting [8] is: Equus caballus, pH 6, 20 °C, GdnHCl, CD, MES 10 mM, NaCl 0.4 M, reversible: yes.
Where [9] appears, read: Equus caballus, pH 7, 10 °C, GdnHCl, CD, sodium phosphate 0.1 M, reversible: yes.
[10] abbreviates: Equus caballus, pH 7, 10 °C, GdnHCl, Fluorescence, acetate/phosphate 50 mM/50 mM/.
The mark [11] stands for this setting: Equus caballus, pH 7, 22 °C, GdnHCl, Fluorescence, sodium phosphate 0.1 M, reversible: yes.
The mark [12] stands for this setting: Equus caballus, pH 7, 23 °C, GdnHCl, SAXS, Phosphate 100 mM, transition: 2.
Setting [13] is: Equus caballus, pH 7, 25 °C, GdnHCl, DSC, cacodylic acid 0.03 M, NaCl 0.1 M, reversible: yes.
Setting [14] is: Equus caballus, pH 12.7, 22 °C, GdnHCl, Fluorescence, NaOH, reversible: yes.
The mark [15] stands for this setting: Homo sapiens, pH 7.5, Thermal, Differential Scanning Fluorimetry, PBS, transition: 2, structure 1DXX.
[16] abbreviates: Homo sapiens, pH 7.5, Thermal, CD, Tris-HCl, NaCl, structure 1DXX.
Setting [17] is: Homo sapiens, pH 7, Thermal, CD, Phosphate 100 mM, NaCl 150 mM, structure 1DXX.
The mark [18] stands for this setting: Homo sapiens, pH 2.4, Thermal, CD, glycine hydrochloride 20 mM, NaCl 1 M, reversible: yes, structure 1TTG.
[19] abbreviates: Homo sapiens, pH 7, Thermal, CD, sodium phosphate 20 mM, NaCl 0.1 M, reversible: yes, structure 1TTG.
The mark [20] stands for this setting: Homo sapiens, pH 7, Thermal, CD, sodium phosphate 20 mM, NaCl 1 M, reversible: yes, structure 1TTG.
Setting [21] is: Homo sapiens, pH 5, 25 °C, Urea, CD, sodium acetate 50 mM, structure 1TTG.
Setting [22] is: Drosophila melanogaster, pH 7.5, 15 °C, GdnHCl, CD, Tris-HCl, NaCl 50 mM, structure 1SAN.
Where [23] appears, read: Bos taurus, pH 8, Thermal, DSC, HEPES 50mM, NaCl 150mM, structure 1IHG.
The mark [24] stands for this setting: Bos taurus, pH 8, Thermal, DSC, HEPES 50mM, NaCl 150mM.
Where [25] appears, read: Bos taurus, pH 8, 30 °C, GdnHCl, CD, borate 10 mM, structure 1BP2.
Where [26] appears, read: Rattus norvegicus, pH 8, 25 °C, Urea, Fluorescence, Tris-HCl 50 mM, MgCl2 4 mM, transition: 3, reversible: yes, structure 1QM4.

Fibronectin D1544K, P02751, sequence (P02751 whole entry D1544K): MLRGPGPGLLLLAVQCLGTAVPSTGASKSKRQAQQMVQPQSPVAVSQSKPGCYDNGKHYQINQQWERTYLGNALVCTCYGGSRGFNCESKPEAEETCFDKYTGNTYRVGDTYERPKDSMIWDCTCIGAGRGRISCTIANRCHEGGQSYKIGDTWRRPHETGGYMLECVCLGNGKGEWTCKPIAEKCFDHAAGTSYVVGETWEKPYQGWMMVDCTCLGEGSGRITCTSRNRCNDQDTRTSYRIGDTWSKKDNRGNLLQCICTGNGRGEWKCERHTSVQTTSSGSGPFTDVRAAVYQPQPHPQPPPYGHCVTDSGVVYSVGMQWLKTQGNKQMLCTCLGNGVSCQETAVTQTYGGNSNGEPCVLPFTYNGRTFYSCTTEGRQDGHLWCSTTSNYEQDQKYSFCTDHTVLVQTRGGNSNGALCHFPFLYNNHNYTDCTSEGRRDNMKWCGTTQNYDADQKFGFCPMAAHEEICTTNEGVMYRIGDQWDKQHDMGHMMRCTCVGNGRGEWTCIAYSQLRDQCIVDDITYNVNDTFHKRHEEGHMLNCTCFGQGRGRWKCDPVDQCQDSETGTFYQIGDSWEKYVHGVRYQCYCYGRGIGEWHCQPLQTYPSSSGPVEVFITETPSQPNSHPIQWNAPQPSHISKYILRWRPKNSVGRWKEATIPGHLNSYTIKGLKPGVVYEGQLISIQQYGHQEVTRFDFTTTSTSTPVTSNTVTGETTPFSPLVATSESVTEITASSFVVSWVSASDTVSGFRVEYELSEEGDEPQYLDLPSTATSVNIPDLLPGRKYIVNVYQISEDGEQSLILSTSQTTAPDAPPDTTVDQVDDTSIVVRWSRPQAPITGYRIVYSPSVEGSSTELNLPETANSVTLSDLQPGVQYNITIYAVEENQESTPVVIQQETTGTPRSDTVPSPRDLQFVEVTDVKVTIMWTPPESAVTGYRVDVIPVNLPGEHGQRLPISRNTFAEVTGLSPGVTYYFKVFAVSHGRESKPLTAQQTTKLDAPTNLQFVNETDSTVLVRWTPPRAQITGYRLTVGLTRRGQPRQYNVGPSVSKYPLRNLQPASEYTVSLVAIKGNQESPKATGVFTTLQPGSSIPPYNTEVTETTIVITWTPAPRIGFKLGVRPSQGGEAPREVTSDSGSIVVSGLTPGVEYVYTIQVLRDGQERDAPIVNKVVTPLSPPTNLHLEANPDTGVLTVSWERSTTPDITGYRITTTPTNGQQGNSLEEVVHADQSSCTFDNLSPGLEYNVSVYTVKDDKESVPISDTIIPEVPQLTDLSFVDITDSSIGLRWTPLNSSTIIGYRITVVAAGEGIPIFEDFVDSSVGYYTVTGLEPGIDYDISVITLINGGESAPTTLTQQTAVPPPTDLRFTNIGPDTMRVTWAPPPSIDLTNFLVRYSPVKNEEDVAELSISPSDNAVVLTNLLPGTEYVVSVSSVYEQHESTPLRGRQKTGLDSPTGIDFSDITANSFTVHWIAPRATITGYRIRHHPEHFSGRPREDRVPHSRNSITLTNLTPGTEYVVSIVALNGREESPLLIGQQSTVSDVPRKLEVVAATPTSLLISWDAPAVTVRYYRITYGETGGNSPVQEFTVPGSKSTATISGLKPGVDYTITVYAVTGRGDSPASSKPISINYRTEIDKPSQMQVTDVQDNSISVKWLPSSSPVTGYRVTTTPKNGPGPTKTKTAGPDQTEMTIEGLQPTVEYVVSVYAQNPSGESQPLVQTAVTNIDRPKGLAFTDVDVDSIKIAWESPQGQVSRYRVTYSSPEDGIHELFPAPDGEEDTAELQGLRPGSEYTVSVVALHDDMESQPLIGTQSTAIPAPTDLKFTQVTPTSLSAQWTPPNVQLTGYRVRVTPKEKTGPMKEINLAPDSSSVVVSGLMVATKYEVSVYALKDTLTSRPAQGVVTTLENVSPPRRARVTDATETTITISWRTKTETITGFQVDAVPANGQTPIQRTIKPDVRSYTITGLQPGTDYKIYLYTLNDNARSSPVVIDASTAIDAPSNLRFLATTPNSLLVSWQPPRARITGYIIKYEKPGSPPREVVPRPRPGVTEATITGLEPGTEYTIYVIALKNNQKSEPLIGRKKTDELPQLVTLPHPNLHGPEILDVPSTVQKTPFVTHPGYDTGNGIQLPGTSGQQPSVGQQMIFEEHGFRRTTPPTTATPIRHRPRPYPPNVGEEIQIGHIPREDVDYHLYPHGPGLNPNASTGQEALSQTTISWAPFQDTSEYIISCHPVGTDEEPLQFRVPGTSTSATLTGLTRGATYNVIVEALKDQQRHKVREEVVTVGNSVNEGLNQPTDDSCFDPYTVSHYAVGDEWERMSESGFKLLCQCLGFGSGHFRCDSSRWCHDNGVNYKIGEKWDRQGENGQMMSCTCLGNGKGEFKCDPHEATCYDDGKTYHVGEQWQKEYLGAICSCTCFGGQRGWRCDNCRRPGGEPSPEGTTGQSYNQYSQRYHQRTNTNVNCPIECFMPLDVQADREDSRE
Carbonic anhydrase 2 wild type, P00921, sequence (P00921 whole entry): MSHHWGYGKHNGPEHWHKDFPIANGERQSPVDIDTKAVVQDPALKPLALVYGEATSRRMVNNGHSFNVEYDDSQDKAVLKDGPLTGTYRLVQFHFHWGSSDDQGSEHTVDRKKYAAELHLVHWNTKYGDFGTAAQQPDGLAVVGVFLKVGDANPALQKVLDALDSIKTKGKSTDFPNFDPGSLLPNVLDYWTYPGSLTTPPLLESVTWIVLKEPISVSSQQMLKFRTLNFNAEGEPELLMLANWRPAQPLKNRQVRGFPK
Peptidyl-prolyl cis-trans isomerase D K308A, P26882, sequence (P26882 whole entry K308A): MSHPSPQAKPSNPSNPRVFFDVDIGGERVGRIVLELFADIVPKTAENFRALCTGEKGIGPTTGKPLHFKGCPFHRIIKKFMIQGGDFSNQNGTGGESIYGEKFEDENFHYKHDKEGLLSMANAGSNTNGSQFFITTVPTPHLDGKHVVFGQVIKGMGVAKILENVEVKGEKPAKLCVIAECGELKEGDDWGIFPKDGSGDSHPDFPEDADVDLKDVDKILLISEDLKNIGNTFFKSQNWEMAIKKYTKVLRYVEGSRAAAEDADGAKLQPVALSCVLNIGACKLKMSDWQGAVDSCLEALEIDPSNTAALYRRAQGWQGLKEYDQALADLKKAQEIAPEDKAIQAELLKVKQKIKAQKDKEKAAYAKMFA
S-adenosylmethionine synthase isoform type-1 R265H, P13444, sequence (P13444 whole entry R265H, canonical isoform): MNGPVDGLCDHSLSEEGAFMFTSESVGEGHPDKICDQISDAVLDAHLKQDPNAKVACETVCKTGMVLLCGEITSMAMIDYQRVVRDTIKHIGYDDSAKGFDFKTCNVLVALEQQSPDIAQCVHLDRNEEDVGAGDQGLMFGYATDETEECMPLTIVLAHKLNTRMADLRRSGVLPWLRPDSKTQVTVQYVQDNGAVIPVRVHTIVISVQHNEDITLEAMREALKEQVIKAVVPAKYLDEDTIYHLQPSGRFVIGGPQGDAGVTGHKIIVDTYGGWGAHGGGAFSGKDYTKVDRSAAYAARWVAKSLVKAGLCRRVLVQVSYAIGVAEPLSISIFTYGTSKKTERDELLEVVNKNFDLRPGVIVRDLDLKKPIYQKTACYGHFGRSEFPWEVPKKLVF
Peptidyl-prolyl cis-trans isomerase D K227A, P26882, sequence (P26882 whole entry K227A): as the sequence (P26882 whole entry K308A) above, with K227A, A308K counted along it
Homeotic protein antennapedia R306E|L310R|H317R|F318R, P02833 R306E L310R H317R F318R, sequence (P02833 whole entry R306E/L310R/H317R/F318R): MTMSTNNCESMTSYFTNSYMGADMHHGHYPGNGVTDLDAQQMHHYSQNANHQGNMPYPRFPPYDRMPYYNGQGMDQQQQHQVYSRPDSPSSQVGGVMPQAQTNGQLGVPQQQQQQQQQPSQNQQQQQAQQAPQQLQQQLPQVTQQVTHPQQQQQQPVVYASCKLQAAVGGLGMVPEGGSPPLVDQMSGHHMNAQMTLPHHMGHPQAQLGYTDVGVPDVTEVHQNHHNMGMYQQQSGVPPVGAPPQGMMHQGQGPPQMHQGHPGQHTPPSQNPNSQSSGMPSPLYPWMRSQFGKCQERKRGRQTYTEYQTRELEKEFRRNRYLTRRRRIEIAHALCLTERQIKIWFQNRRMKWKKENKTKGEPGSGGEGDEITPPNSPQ
Endo-1,4-beta-xylanase wild type, Q59962, sequence (Q59962 entry or part of it): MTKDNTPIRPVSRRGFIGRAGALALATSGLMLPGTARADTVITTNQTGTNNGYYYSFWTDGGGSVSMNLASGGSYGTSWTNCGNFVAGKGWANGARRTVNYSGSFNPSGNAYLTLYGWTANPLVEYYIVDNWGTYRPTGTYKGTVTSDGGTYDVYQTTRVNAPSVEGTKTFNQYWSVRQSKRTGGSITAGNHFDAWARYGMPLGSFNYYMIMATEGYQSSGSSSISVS
Cytochrome c wild type, P00004, sequence (P00004 whole entry): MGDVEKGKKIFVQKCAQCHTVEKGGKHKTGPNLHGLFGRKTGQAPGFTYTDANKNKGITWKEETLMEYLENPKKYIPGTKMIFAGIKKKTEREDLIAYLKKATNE
Peptidyl-prolyl cis-trans isomerase D wild type, P26882, sequence (P26882 whole entry): as the sequence (P26882 whole entry K308A) above, with A308K counted along it

Take Carbonic anhydrase 2 wild type, P00921: the Tm reads like this: under setting [1], 39 °C; under setting [2], 48 °C; under setting [3], 56 °C; under setting [4], 62.5 °C; under setting [5], 64 °C. Also, the “heat capacity change of unfolding” value is, setting by setting: under setting [1], 4 kcal/mol/K; under setting [2], 4 kcal/mol/K; under setting [3], 4 kcal/mol/K; under setting [4], 3.9 kcal/mol/K; under setting [5], 3.8 kcal/mol/K. Also, the “unfolding enthalpy (calorimetric)” value under setting [5] came to 190 kcal/mol.
“Cell division control protein 42 homolog T35A, P60953”: under setting [6], the Tm is 64.2 °C and the “change of melting temperature, mutant - wild type (higher = more stable)” value (“change of melting temperature, mutant” for short) turned out to be 0.7 °C.
Regarding “Cell division control protein 42 homolog wild type, P60953”, the midpoint of thermal melting (Tm) (Homo sapiens, Thermal, DSC, 1 X - PBS, Mg2+ 0.5 mM) came out at 63.5 °C.
As to “Cold shock-like protein wild type, O54310”, under setting [7], the denaturant m value worked out at 1.34 kcal/mol/M and the unfolding free energy was 3.35 kcal/mol.
“Creatine kinase B-type wild type, P00567”: the unfolding free energy (Oryctolagus cuniculus, pH 7.4, 22 °C, GdnHCl, CD, Sodium phosphate 100 mM) was 6.94 kcal/mol. In addition, under “Oryctolagus cuniculus, pH 8, Thermal, DSC, HEPES-NaOH 30 mM, reversible: no”, the midpoint of thermal melting (Tm) was 55.9 °C.
Turning to “Creatine kinase M-type wild type, P00563”, the melting temperature (Tm) (Oryctolagus cuniculus, pH 8, Thermal, DSC, Hepes-NaOH 30 mM, NaCl 0.1 M, reversible: No) was 53.7 °C and 53.8 °C.
For the substance Cytochrome c wild type, P00004, the unfolding free energy runs as follows: (Equus caballus, pH 1.7, 20 °C, HCl, CD, HCl 9 mM) 3.3 kcal/mol; (Equus caballus, pH 4.9, 10 °C, GdnHCl, Fluorescence, sodium acetate 0.2 M) 8.2 kcal/mol; under setting [8], 2.04 kcal/mol; (Equus caballus, pH 6.5, 25 °C, GdnHCl, CD, HCl 0.1 M, reversible: yes) 12.7 kcal/mol; under setting [9], 20.4 kcal/mol and 12.1 kcal/mol; under setting [10], 10.4 kcal/mol. Besides, the unfolding free energy was 8.5 kcal/mol (Equus caballus, pH 7, 21 °C, GdnHCl, Absorbance, phosphate 10 mM); 8.4 kcal/mol (Equus caballus, pH 7, 21 °C, GdnHCl, CD, phosphate 10 mM); 7.4 kcal/mol (Equus caballus, pH 7, 21 °C, GdnHCl, Fluorescence, phosphate 10 mM); 18 kcal/mol under setting [11]; 10.7 kcal/mol and 7.2 kcal/mol under setting [12]; 8.7 kcal/mol (Equus caballus, pH 7, 25 °C, GdnHCl, Absorbance, cacodylate 0.03 M, KCl 0.1 M, reversible: yes). Further, the unfolding free energy runs as follows: under setting [13], 6 kcal/mol; (Equus caballus, pH 7, 25 °C, SDS, CD, Phosphate 50 mM) 3.59 kcal/mol; under setting [14], 3 kcal/mol. Besides, the denaturant m value runs as follows: under setting [8], 1.61 kcal/mol/M; under setting [9], 3.8 kcal/mol/M and 3.2 kcal/mol/M; under setting [10], 3.9 kcal/mol/M; under setting [12], 4.1 kcal/mol/M and 2.5 kcal/mol/M; under setting [13], 2 kcal/mol/M. The “denaturant midpoint (higher = more stable)” value (“denaturant midpoint” below) was 1.27 M under setting [8]; 2.67 M under setting [10]; 5 M under setting [11]; 2.54 M under setting [13]; 2.6 M under setting [14].
With Cytochrome c wild type, P62894, where the note is “Bos taurus, pH 6.5, 25 °C, GdnHCl, CD, HCl 0.1 M, reversible: yes”, the unfolding free energy was 15.4 kcal/mol.
Dystrophin, P11532 C10S C188S: the melting temperature (Tm) stood at 61 °C (Homo sapiens, pH 7, Thermal, CD, NaH2PO4, NaCl, reversible: no, structure 1DXX) and 62.4 °C (Homo sapiens, pH 7, Thermal, Fluorescence, NaH2PO4, NaCl, reversible: no, structure 1DXX). Besides, the unfolding free energy was 9.81 kcal/mol (Homo sapiens, pH 7, Urea, CD, NaH2PO4, NaCl, reversible: yes, structure 1DXX) and 12.8 kcal/mol (Homo sapiens, pH 7, Urea, Fluorescence, NaH2PO4, NaCl, reversible: yes, structure 1DXX).
In the case of Dystrophin, P11532 L172H, under setting [15], the Tm came to 42.1 °C and the “change of melting temperature, mutant” value is -1.28 °C.
With Dystrophin, P11532 L427P, under setting [16], the Tm was found to be 50 °C and the “change of melting temperature, mutant” value is -3.4 °C.
Consider Dystrophin, P11532 Y231N, for which, under setting [17], the midpoint of thermal melting (Tm) is 43 °C and the “change of melting temperature, mutant” value is -15 °C.
Regarding “Endo-1,4-beta-xylanase wild type, Q59962”, the “unfolding enthalpy (calorimetric)” value (Streptomyces sp. S38, pH 7.5, Thermal, DSC, MOPS 20 mM, NaCl 100 mM, reversible: No) was 108 kcal/mol and 125 kcal/mol and 127 kcal/mol.
In the case of Fibronectin D1544K, P02751, the Tm stood at 69 °C (Homo sapiens, pH 2.4, Thermal, CD, glycine hydrochloride 20 mM, NaCl 0.1 M, reversible: yes, structure 1TTG); 77 °C under setting [18]; 70 °C under setting [19]; 78 °C under setting [20].
For the substance Fibronectin D1544N, P02751, the Tm runs as follows: under setting [18], 82 °C; under setting [19], 69 °C; under setting [20], 80 °C.
As for Fibronectin P1619A, P02751, the “ddG of mutation (higher = less stable)” value under setting [21] amounted to 0.42 kcal/mol.
For Fibronectin P1624A, P02751, the “ddG of mutation (higher = less stable)” value under setting [21] was 0.21 kcal/mol.
For Fibronectin Y1605F, P02751, where the note is “Homo sapiens, pH 5, 25 °C, Urea, Fluorescence, Sodium acetate 50 mM, reversible: yes, structure 1TTG”, the “ddG of mutation (higher = less stable)” value is -2.03 kcal/mol.
Take “Homeotic protein antennapedia R306E|L310R|H317R|F318R, P02833 R306E L310R H317R F318R”: under setting [22], the denaturant m value is 1.6 kcal/mol/M and 0.79 kcal/mol/M; the “denaturant midpoint” value is 2.14 M and 1.32 M.
For MKLWFSTLKLKKAA [wild type], the melting temperature (Tm) came to 65 °C (Bacillus licheniformis, pH 5, Thermal, Fluorescence, Sodium acetate 50 mM, reversible: no); 64.7 °C (Bacillus licheniformis, pH 6, Thermal, Fluorescence, Sodium phosphate 50 mM); 56.5 °C (Bacillus licheniformis, pH 9, Thermal, Fluorescence, Sodium pyrophosphate 50 mM, reversible: yes). The “unfolding enthalpy (van 't Hoff)” value (Bacillus licheniformis, pH 7, Thermal, Fluorescence, Sodium phosphate 50 mM, reversible: yes) was 99.9 kcal/mol and 112 kcal/mol and 164 kcal/mol.
With “Peptidyl-prolyl cis-trans isomerase D K227A, P26882”, under setting [23], the midpoint of thermal melting (Tm) is 45.2 °C; the “change of melting temperature, mutant” value worked out at 0.12 °C; the “unfolding enthalpy (calorimetric)” value stood at 159 kcal/mol.
On to “Peptidyl-prolyl cis-trans isomerase D K308A, P26882”, for which, under setting [23], the Tm came to 45 °C; the “change of melting temperature, mutant” value was -0.07 °C; the “unfolding enthalpy (calorimetric)” value amounted to 155 kcal/mol.
As for “Peptidyl-prolyl cis-trans isomerase D wild type, P26882”, under setting [24], the Tm worked out at 45.1 °C and the “unfolding enthalpy (calorimetric)” value stood at 165 kcal/mol.
Regarding Phospholipase A2 H70A, P00593, under setting [25], the “ddG of mutation (higher = less stable)” value worked out at 3.1 kcal/mol, the denaturant m value turned out to be 1.02 kcal/mol/M, the “denaturant midpoint” value was 6.3 M and the unfolding free energy is 6.4 kcal/mol.
Take Phospholipase A2 H70Q, P00593: under setting [25], the “ddG of mutation (higher = less stable)” value was found to be 0.6 kcal/mol, the denaturant m value worked out at 1.34 kcal/mol/M, the “denaturant midpoint” value is 6.6 M and the unfolding free energy stood at 8.9 kcal/mol.
Turning to “Phospholipase A2, major isoenzyme N111D, P00592”, the unfolding free energy (Sus scrofa, pH 7, 20 °C, GdnHCl, Absorbance, Tris 5 mM, reversible: yes, structure 1P2P) turned out to be 0.19 kcal/mol.
Regarding “Phospholipase A2, major isoenzyme wild type, P00592”, where the note is “Sus scrofa, pH 7, 20 °C, GdnHCl, Absorbance, Tris 5 mM, reversible: yes”, the unfolding free energy was found to be 0 kcal/mol.
With “S-adenosylmethionine synthase isoform type-1 R265H, P13444”, under setting [26], the denaturant m value is 1.15 kcal/mol/M, the “denaturant midpoint” value was determined as 3.82 M and the unfolding free energy was found to be 4.41 kcal/mol.
Regarding “S-adenosylmethionine synthase isoform type-1 wild type, P13444”, the unfolding free energy (Rattus norvegicus, pH 8, 25 °C, Urea, Fluorescence, Tris-HCl 50 mM, MgCl2 4 mM, transition: 3, reversible: yes) is 6.12 kcal/mol and 4.41 kcal/mol.
Take Soluble cytochrome b562 A62G, P0ABE7: the “ddG of mutation (higher = less stable)” value (Escherichia coli, pH 5, 25 °C, Urea, Fluorescence, NaAc 50 mM, structure 6BQG) was 0.57 kcal/mol.

As a reminder, the Tm is the temperature at the midpoint of the melting transition.
